Data as given in patent US20240240203A1.

Molecular target: Ad5 hexon capsid protein with DogTag inserted into the HVR5 loop, on Ad5 virions (Ad5-HVR5-DogTag) (human adenovirus serotype 5 (Ad5)) (UniProt P04133)

“polyhistidine-tagged recombinant DogCatcher with 18 copies of the NANP repeat sequence from the Plasmodium falciparum circumsporozoite protein fused to the C-terminus” was tested, and the ligand coverage (% hexon) was greater than 90%.
